Target: the molecule itself
Test: SEC; HiLoad Superdex 200 HR column (1.6 x 60 cm), 20 mM Na-HEPES, 200 mM NaCl, pH 7.0, 0.7 mL/min, 4 °C; preparative isolation of the oligomeric form after affinity purification

Protein	stoichiometry N
Recombinant full-length wild-type human phenylalanine hydroxylase (enzyme, UniProt P00439 1-452, looked up, human phenylalanine hydroxylase (hPAH; EC 1.14.16.1), full-length wild type, expressed in fusion with a hexa-histidyl peptide; It gives a subunit mass of 55 kDa and an expected tetramer mass of 223 kDa; Non-heme iron sits in the catalytic site; also called hPAH; PAH; source: E. coli Top10, purified (IMAC on Ni-NTA agarose, then SEC to isolate tetramers)) MSTAVLENPGLGRKLSDFGQETSYIEDNCNQNGAISLIFSLKEEVGALAKVLRLFEENDVNLTHIESRPSRLKKDEYEFFTHLDKRSLPALTNIIKILRHDIGATVHELSRDKKKDTVPWFPRTIQELDRFANQILSYGAELDADHPGFKDPVYRARRKQFADIAYNYRHGQPIPRVEYMEEEKKTWGTVFKTLKSLYKTHACYEYNHIFPLLEKYCGFHEDNIPQLEDVSQFLQTCTGFRLRPVAGLLSSRDFLGGLAFRVFHCTQYIRHGSKPMYTPEPDICHELLGHVPLFSDRSFAQFSQEIGLASLGAPDEYIEKLATIYWFTVEFGLCKQGDSIKAYGAGLLSSFGELQYCLSEKPKLLPLELEKTAIQNYTVTEFQPLYYVAESFNDAKEKVRNFAATIPRPFSVRYDPYTQRIEVLDNTQQLKILADSINSEIGILCSALQKIK	4
MBP-FXa-hPAH-RD^1–120 (N-terminal regulatory domain of human phenylalanine hydroxylase fused to maltose binding protein) (domain or fragment, UniProt P00439 1-120, looked up, human phenylalanine hydroxylase, N-terminal regulatory domain, amino acids 1-120; The fusion is about 53 kDa; also called MBP-FXa-hPAH-RD^1–120 fusion protein; dimeric MBP-FXa-hPAH-RD^1–120; source: E. coli TB1, purified (amylose resin, then SEC to isolate dimers); not shown: MBP, N-terminal, kept) MSTAVLENPGLGRKLSDFGQETSYIEDNCNQNGAISLIFSLKEEVGALAKVLRLFEENDVNLTHIESRPSRLKKDEYEFFTHLDKRSLPALTNIIKILRHDIGATVHELSRDKKKDTVPW	2

Reference: PMC8003416, “Modulation of Human Phenylalanine Hydroxylase by 3-Hydroxyquinolin-2(1H)-One Derivatives” (Biomolecules, 2021)
